The subject of one series is MSSA isolates. The experiment in a line: MIC in CAMHB-HSD against MSSA isolates. In kind it is cell-based, Staphylococcus aureus. The following applies: 51 MSSA isolates. How it is done: In vitro activity of the modified lysin polypeptide pp296 was assessed against a range of 51 MSSA and 51 MRSA isolates in cation-adjusted Mueller Hinton broth supplemented with 25% horse serum and 0.5 mM DTT (CAMHB-HSD) and compared to WT GMP grade PlySs2 (CF-301). CF-301 and pp296 were each diluted into CAMHB-HSD. For each lysin, the dilution series is set up such that, after a two-fold dilution of each well of the plate, the final concentrations contained: 64, 32, 16, 8, 4, 2, 1, 0.5, 0.25, and 0.125 μg/mL. Each lysin was tested in duplicate against each strain. Preparations were incubated overnight. Growth was visualized as a growth button approximately 2 mm in diameter. The highest dilution that yielded ≥80% growth inhibition was called the minimum inhibitory concentration (MIC). The activity of pp296 was very similar, within one 2-fold dilution, to that of CF-301, as shown below in Table 7.

A further series deals with MRSA strain MW2. As to the kind of experiment: Serial passage resistance assay. Type of series: cell-based, Staphylococcus aureus. How it is done: An analysis of bacterial resistance was performed using MRSA strain MW2 over 18 days of serial passage in the presence of a pp296 dilution series and an antibiotic dilution series in presence and absence of sub-MIC amounts of pp296. Briefly, the broth microdilution MIC format was used in which 2-fold dilutions ranges of pp296 alone or antibiotic in the presence and absence of a fixed sub-MIC amount of pp296 was cultured with bacteria (5×10^5 CFU/ml starting concentration) in MHB for 20 hours at 37° C. The well with the highest concentration of the modified lysin polypeptide in which bacterial growth was seen was then used as the inoculum for the next day's passage, and the process was repeated over a […]. The MIC at each daily time-point was recorded, and resistance was measured as a step-wise increase in MIC. […] The results are depicted graphically in FIGS. 3A-3C.

The nature of series [1]: Single 2-hour intravenous infusion toxicity study in rats. Type of series: in vivo, Sprague Dawley rats. An excerpt: The objectives of this study were to evaluate the potential toxicity and toxicokinetic profile of pp296 when administered as a single 2-hour intravenous infusion to Sprague Dawley rats, as well as to evaluate the recovery, persistence, or progression of any effects following a minimum of a 3-day recovery period.
The following Tables 9 and 10 present the study group arrangement. There were 5 male and 5 female rats per group in Phase A.
For the main (Phase A) and toxicokinetic (Phase B) phases, animals received a single 2-hour intravenous infusion. Phase A animals received a single 2-hour intravenous infusion at escalating doses until the maximum tolerated dose (MTD) was determined up to a high dose of 100 mg/kg. A minimum of 3 days of observation was allowed between each pp296 dose. Animals assigned to Groups 2 through 5 were necropsied approximately 72 hours following the end of dose administration. ^aThe vehicle was 20 mM L-histidine, 5% D-sorbitol (w/v), pH 7.0 (±0.1).
The following parameters and endpoints were evaluated in this study: clinical signs, body weight, body weight gain, food consumption, clinical pathology parameters (hematology, coagulation, serum chemistry, and urinalysis), gross necropsy findings, and histopathologic examinations.

The test system of series [2] is 1-day old biofilms formed by MSSA isolates. The experiment in a line: Minimum Biofilm Eradication Concentration (MBEC), MSSA biofilms. In kind it is cell-based, Staphylococcus aureus. The note with it: 24 hours treatment. As to the method: In some embodiments, the present modified lysin polypeptides are capable of reducing a biofilm. […] Biofilms are then washed and treated with e.g., a 2-fold dilution series of the lysin in TSBg at e.g., 37° C. for 24 hours. After treatment, wells are washed, air-dried at e.g., 37° C. and stained with e.g., 0.05% crystal violet for 10 minutes. After staining, the biofilms are destained in e.g., 33% acetic acid and the OD600 of e.g., extracted crystal violet is determined. The MBEC of each sample is the minimum lysin concentration required to remove >95% of the biofilm biomass assessed by crystal violet quantitation.
The anti-biofilm activity of pp296 was determined against 1-day old biofilms formed by 17 MSSA and 20 MRSA isolates in a 96-well broth microdilution format. The Minimum Biofilm Eradication Concentration (MBEC) values for pp296, compared to wild-type PlySs2 (CF-301), were determined by the following standard methodology. Bacteria were suspended in PBS (0.5 McFarland Units), diluted 1:100 in TSBg (66% tryptic soy broth, 0.2% glucose), added as 0.15 mL aliquots to 96-well polystyrene microplates, and incubated for 24 hours at 37° C. Biofilms were then washed and treated with a 2-fold dilution series of CF-301 or pp296 in TSBg at 37° C. for 24 hours. All samples were examined in triplicate. After treatment, wells were washed, air-dried at 37° C., and stained with 0.05% crystal violet for 10 min The loss of biofilm biomass was assessed visually, and crystal violet was quantitated by solubilization in 33% (vol/vol) acetic acid. The optical density of 600 nm (OD600) was determined using a SpectraMax M3 Multimode microplate reader. The MBEC of each sample was the minimum lysin concentration required to remove >95% of the biofilm biomass assessed by crystal violet quantitation.

Series [3] is described as follows: 7-day repeated 2-hour infusion toxicity study in rats. In kind it is in vivo, Sprague Dawley rats. The following applies: rats, 0.5, 2.5, or 10 mg/kg/day, 7 consecutive days. As to the method:
The objective of this study was to evaluate the potential toxicity and toxicokinetic profile of modified lysin polypeptide pp296 when administered daily by 2-hour infusion to Sprague Dawley rats for 7 consecutive days.
Experimental procedures, animals and treatment are summarized below in Table 11.
All surviving animals were submitted for necropsy on Day 8 (Terminal Euthanasia). Necropsies were performed and organ weights were collected by Testing Facility personnel. Statistical analysis of organ weight data was performed by the testing facility engaged on a fee-for-service commercial basis. Tissues required for microscopic evaluation were trimmed, processed routinely, embedded in paraffin, and stained with hematoxylin and eosin by Charles River Laboratories Ashland, LLC. Microscopic evaluation was conducted by a board-certified veterinary pathologist on select protocol-specified tissues from all animals in Groups 1 through 4 and all gross lesions from all animals. Tissues were evaluated by light microscopy.

The nature of series [4]: Toxicity screening in mice. Type of series: in vivo. The note with it: 30 mg/kg. How it is done: Selected modified lysin polypeptides from Table 3 were subjected to further testing as described in more detail in subsequent Examples. […] The same 30 mg/kg dose of PlySs2 caused a 100% incidence of adventitial findings, which is an indication of potential toxicity.

The values below come from US20210032294A1, “MODIFIED PlySs2 LYSINS AND USES THEREOF” (CONTRAFECT CORPORATION, priority 2018, published 2021).

Entries after “also recorded” stand apart in the source; their conditions may differ. A value given as a limit tells only on which side of the number the result lay.

B1: pp296: Modified PlySs2 lysin, SEQ ID NO: 6: L92W, V104S, V128T, Y137S, Y164K, N184D, S198Q (protein)
chain: MTTVNEALNNVRAQVGSGVSVGNGECYALASWYERMISPDATVGLGAGVGWVSGAIGDTISAKNIGSSYNWQANGWTVSTSGPFKAGQIVTWGATPGNPYGHVSIVEAVDGDRLTILEQNYGGKRYPTRNYYSAASSRQQVVHYITPPGTVAQSAPNLAGSRSKRETGTMTVTVDALNVRRAPDTSGEIVAVYKRGEQFDYDTAIIDVNGYAWVSYIGGSGKRNYVATGATKDGKRFGNAWGTFK
In the case of B1, in the series with MSSA isolates, the MIC50 worked out at 1 µg/mL, the MIC90 was 1 µg/mL and the “MIC Range” value was 0.5 to 2 µg/mL. Moreover, the “Increase in MIC of DAP or VAN / appearance of antibiotic resistance” value with MRSA strain MW2 (antibiotic plus fixed sub-MIC amount of lysin) is “no or very little increase; also recorded: suppressed the appearance of daptomycin and vancomycin resistance”. The “Resistance to the lysin (increase in MIC on serial passage)” value in the series with MRSA strain MW2 (lysin alone, three replicate lineages, 21-26 day period) is given as “no or very little increase; also recorded: no resistance to pp296 was observed”. The “Amount needed to suppress DAP resistance” value in the series on MRSA strain MW2 (with daptomycin, 1/16th the MIC for pp296 alone) is 0.125 µg/mL. Besides, the “Amount needed to suppress development of VAN resistance” value in the series on MRSA strain MW2 (with vancomycin, 1/8th the MIC for pp296 alone) turned out to be 0.25 µg/mL. In addition, in series [1] (single 2-hour intravenous infusion), the “No-observed-adverse-effect level (NOAEL)” value is above 100 mg/kg. Also, in series [1] (single intravenous infusion, 5, 25, 50, and 100 mg/kg), the “Tolerability / adverse findings” value is given as “well tolerated with no adverse findings at all doses; also recorded: well-tolerated with no adverse findings at all doses”. Also, in series [2], the MBEC50 amounted to 0.063 µg/mL, the MBEC90 stood at 0.25 µg/mL and the “MBEC Range” value was in the range of 0.01 to 1 µg/mL. For the same molecule, the Toxicity findings entry in series [3] (2-hour infusion) is listed as “No toxicity was found; also recorded: no pp296-related gross, microscopic, or organ weight findings”. Moreover, the Unscheduled deaths result in series [3] is on record as “no unscheduled deaths”. In series [4], the “Adventitial findings (lesions)” value was “no adventitial findings; also recorded: did not result in adventitial lesions”.
